The nature of this data set: label from the status in PepcDB records.

Take “MLIRRKIMQYNDMSKEELLVLKESLNKEYAEAKAKGLALDMSRGKPSAKQLDVSLGLLDTINSSSDLKSLDGTDCRNYGVLDGIPEAKKLMADMMGTTPDHVIVYGNASLNIMYDQISRAYTHGILGNTPWCKLDKVKFLCPVPGYDRHFAITERFGIEMINIPMSESGPDMGMVEEYVSKDASVKGIWCVPKYSNPQGYTYSEETVKRMAALKPAAEDFRIFWDNAYVIHDLYDDNKDEIADIISECEKAGNPDMVFEFASTSKVSFPGSGIAALATSANNIADIKKQLTIQTIGHDKLNQLRHVRFFKDINGLKEHMRKHAEFIRPKFEAVESVLEEELSGLGIGSWTEPKGGYFISFDAMDGCAKAIVAKCKEAGVKLTGAGATFPYGKDPKDSNIRIAPSFPTPEEMKQAADLFVLCVKLVSVEKLLENK”: the protein production entry is “failed”.

For the sequence “MLITLPYFLTRKTLPGYIIGGDTLVHAAIARGIYLGRNPFLDQTYNVYPSWYPFLYHLIVAVTSKVFQISIEGAMLLLQATLAILGCIVFFYVAKNLWGSTAGIMAMAFSLMFLPFHRYPNPKELIPIFGALFILYFVKERWVLSGIILGLGLWSHYASMFPLFVLPLTVYIFTRRKEVITPLLISTIVFLPFAINIISHADHIIPKVEDIYAFWKTDTLEKKLLSLLPPIYLVPFLLLSLYKFYKRRDYEGTVLFLSVVTIWGLRLLPESLKPFGIQIWSTRFTVPLPTIYLLLSAYGISEIKITSKDIKTIFLGILLFLIPIASALNFWEAIKRDPFIWVSEFELKEYFPEEHFIEVSEWIKANTERDNLIATSEEAGMMINALTGRPIMATLYGHGNTFLDNEIRRKDLELLFTADCKEKAKIISKYKIKYIVLDTFVYKRWEVKDMSCIAEPVYKVENVTILRVNLNITYTNKGEIRMNKKLFWLLLIAFVVNFSVIYGRKNPCWRKWRRYDNSHGHD”, the protein production result was “failed”. For the sequence “MLIVGLNGSPKKDGNTAFLVREGLAAAAAAGAETALIHIADAMADQKIPYCTQCSNPCQGACSRHNRLGEAFDLLRRADGLLLGSPVYFGSVSAQLKAFWDKSRILRKEKALLNVVGAGVTVGGARFGGQETTMKALFDMMLVQGMILVGDGHTEADCGHQGSCGQAPASSDEFAIRRVRLAGRRLAEVAAATMTLRRHRA”, the protein production result was “failed”. With “MLIVNREEYSKSDFDLRLQAYEEMEQFQEAAGNRFALCLKDPFDIITLVFFLKEKKSSVLLIHEDTPKETAIEMAKRANCIGILYGENSDFTKLEAVNYLAEEPSLLQYSSGTTGEPKLIRRAWTEVDTEIKVYNEALNCDIDEVPIVMAPVSHSYGLICGTLSAITRGSKPIIITNKNPKFALNIVRNTEKHIVYAVPLMLHIMGSFPQGTFQFHKIMTSGAPLPEALFYKLKETTTYMMQQYGCSEAGCISICHDMKSHLDLGNPLPHASISIGSDENAPEEIIVKMNDKEIFTKDLGYKSERGLHFMGRMDDVINVSGLKVFPIEVEETMLRLEGVQEAIVYRGKHPVMGEIVKAKVISHIDPVQIREWCMQHLPSYKVPHEIESVTEIPKNKTGKVSRKLLEMGEVTT”, the protein production result is listed as “failed”. As to “MLKDQANQLEFPRDFLGISLADQPNKYYFIIRTQRIVLEADSSIQLIMEKLQSYKSKVALYFDGFQYQLGDFRLRVGKVVPTHSENVRGIVMEVEYLPISSMEKAQKVMEEFLEIWNEALAKRSLPGKFVNIDLNFGEFGLGDIYTPQHTAVRYALVMAHMIATVQAVRG”, the protein production result was “failed”. As for “MLKIKILIIIFCCIGVVKAQTVIPPSSETPPGWIYYDGDEFNGDVIDSRYWGIYGSPKVGRPTYNQENKAMLQTYRPEQVFIETLPTGEKICRIRSFKSKDAPSPVHPSVKSKTGWWSGALSSRDSDTEKYYPLFCRIEIKAKVPYLYGLWNALWLRHYKGAGVAEIDILEFFTKAFGENPYPAKANQTLHLFNSETQKLGINLPKGQIRYTEIGDDKPGDNFHVYAVQIDPDPVDNNHAIITFLIDNKVNYQIHTRTQLGDAYTDFITKARKEDRLDRVWDIAITGQVGAFDKLDVGYPAEELQQFDFDIDWIRVYVRDPHTRIVGNSKLPHTPEADSFVKDLLSRMTVEEKIGQLSQYVGRTLLTGPESEYLSDSLIARGLVGSVLNISGAKTLRDLQEKNMRHSRIKIPILFGMDVIHGYKTIFPTPLAESCSWDLAAIERAAKIAAIESSAAGLHWTFAPMVDIARDARWGRVVEGAGEDTYLGSEIAKARVNGFQWNLWENNSVLACAKHWVAYGLPQAGRDYAPVDMSERTLFDTYLPPFKACIDAGVLTFMSAFNDINGIPASAHPFLLKDLLRGQWNFNGFVVSDWEAVKQLVAQGVAEDDKDATRLAFNSGIDMDMTDGLYNKYMKELIEAGKISMEDVDNSVSRILHIKYALGLFVDPYKFCNEEYESQTIMKKEFLDAALDMAHKSAVLLKNDNHTLPLAKNVRSIAVVGPLADNQTELLGSWRARGEDRHVTTVLQGIKNKIGGNKTKVGYARGCDFDGEDKSGFKEAVKLASKSDMVIAVVGEKALMSGESRSRAQLDLPGVQEELIKELVATGKPVVVVLMNGRPLSIEWVDKNVSAILETWFLGTSAGTAIADILFGDYNPSGRLTISFPRVEGQVPIYYNYKKSGRPGDMLHSSTTRHIDVPNAPLYPFGYGLSYTTFSYSAPQSTQKEYTRQETISVSVTVTNTGDRDGEETVQLYVNDKVASVVRPVKELKAFKKIFLKAGESKTVQFDISPLALGFYDAAMNYVVEPGEFEIMTGCNSNDLQTISVKLIN”, the protein production entry is reported as “failed”. “MLKKGNEMKAVIVYASVHHGNTKKIEEAMASVISADVIDVTRKIKPDLSGYDVIGFVSGVYFHTFHEGIKKCIEENMSSKGQKVFLVATCGLGYRDYTKGMKDTLAKKDVLCMGSFQCRGWDTYGIFGKIGGIAKKHPNDRDLKEAQEFVLKTVCKTNLEHHHHHH”: the protein production result is “not failed”. With “MLKLGVIGTGAISHHFIEAAHTSGEYQLVAIYSRKLETAATFASRYQNIQLFDQLEVFFKSSFDLVYIASPNSLHFAQAKAALSAGKHVILEKPAVSQPQEWFDLIQTAEKNNCFIFEAARNYHEKAFTTIKNFLADKQVLGADFNYAKYSSKMPDLLAGQTPNVFSDRFAGGALMDLGIYPLYAAVRLFGKANDATYHAQQLDNSIDLNGDGILFYPDYQVHIKAGKNITSNLPCEIYTTDGTLTLNTIEHIRSAIFTDHQGNQVQLPIQQAPHTMTEEVAAFAHMIQQPDLNLYQTWLYDAGSVHELLYTMRQTAGIRFEAEK” the entry was “not failed”; with “MLKLTPLLLAIAYGFLMYQFSVWRTKRMLDAQSRPLDEPEILALARRMAAALDLPTVKVSVFEVDPVNGLAAPDGRIFLTRGFLKKYRAGEVTAEELASVIAHELGHVALGHSRRRMIDFTGQNAVLMMLGAVLNRFVPFAGIWIARLLTSALSARLSRRDEHEADAYASALLVKAGIGTEPQKSLFRKLHRWSGMNSSAVPAWLMSHPVTDERIRRIEEREARWIEGLEHHHHHH”, “failed”; with “MLKNIDPALNADVLHALRAMGHGDTLVISDTNFPSDSVARQTTVGKVLHIDNVSAARAMKAILSVLPLDTPLQPSVGRMEVMGAPDQLEPVQVEVQQEIDAAEGKSAPMYGIERFAFYEKAKQAYCVITTGETRFYGCFLLTKGVIPPK”, “not failed”. Take “MLKNLRIRKFEPEEEYVYFTYSIKNDKREKSKELIREYTTLLQKAIDYLWNLTKIQVRKKNGNYKITLPKKREVYKPLREELEKINHLASHYVDKAINDAFSILKSWRKRAIKGRASIEKPRVKKAYVRIKTTLRKVVGESVRITVRPHEYITFSWSKSWFSRRVRELELGEPIIKEEKVYLPFRYKLPWATPVDFLAIDSNLYTLDAYDGEKFVTISLKQLYSLKYSMEVKRAKVQSFASKHTKRGRELMRKYSHRERNRVLDFVHKFVNTLLDLYPMTFFAVEKLNKESMFKDANDSLSRKISRTVWGSIHRVLKYKAPLYGSFVKEVNPRFTSRSCPRCGFVSRKVGKTFECERCGFKLDRQLNASLNIYLKMCGFPHIREIARVWVGVIPLMGRRGMNGFPRDFGEAQGLRIDIEYHEIPLEHHHHHH”: the protein production result was “not failed”. “MLKPTHFVVAARVTLVLGGLAVAVLALGPFQGAERIVGLNDKAAHAIAFGGLLAVSFLAFPRMRRNDLAIAALVLGAGVEVAQLFGGRSASLLDWLADAAGVLTIYGASMIETVRKMAREQGDMTFAEIAATDRRRARRRAPAVFTPLVETPQTEHAPPLSFAQRAARRFPVS”: the protein production entry was “failed”.

For the origin of these results see a protein production outcome set (Wang et al. 2014).
